For this assay, the target named is T1, KRAS G12V peptide on HLA-A*11 (human).
T1 peptide: VVGAVGVGK
The assay is described as follows: cytokine release.

B1: CR-KVA11-N03 (TCR, V domains shown)
Valpha: RKEVEQDPGPFNVPEGATVAFNCTYSNSASQSFFWYRQDCRKEPKLLMSVYSSGNEDGRFTAQLNRASQYISLLIRDSKLSDSATYLCVVPGGTGGGNKLTFGTGTQLKVEL
Vbeta: DTAVSQTPKYLVTQMGNDKSIKCEQNLGHDTMDWYKQDSKKFLKIMFSYNNKELIINETVPNRFSPKSPDKAHLNLHINSLELGDSAVYFCASSHWGAQETQYFGPGTRLLVL
As to B1, the binding result was “recognises”.

These data come from patent EP4733322A1 (dated 2026).
